This passage reports signal and signal/ng results from patent EP2658867B1 (Avidbiotics Corp., dated 2018).

Common to all, as to assay: ELISA, integrin coated, anti-MICA-HRP
(In an ELISA, binding on a coated surface is turned into a signal by an enzyme label.)

Assay [1] addresses T1, integrin αVβ3 (UniProt P06756 31-992; P05106 27-718).
T1 construct: Coated on the ELISA plate

In assay [2] the target is T2, integrin αVβ5 (UniProt P06756 31-992; P18084 24-719).
T2 construct: Coated on the ELISA plate
T2 sequence (P06756 31-992, chain 1 of 2): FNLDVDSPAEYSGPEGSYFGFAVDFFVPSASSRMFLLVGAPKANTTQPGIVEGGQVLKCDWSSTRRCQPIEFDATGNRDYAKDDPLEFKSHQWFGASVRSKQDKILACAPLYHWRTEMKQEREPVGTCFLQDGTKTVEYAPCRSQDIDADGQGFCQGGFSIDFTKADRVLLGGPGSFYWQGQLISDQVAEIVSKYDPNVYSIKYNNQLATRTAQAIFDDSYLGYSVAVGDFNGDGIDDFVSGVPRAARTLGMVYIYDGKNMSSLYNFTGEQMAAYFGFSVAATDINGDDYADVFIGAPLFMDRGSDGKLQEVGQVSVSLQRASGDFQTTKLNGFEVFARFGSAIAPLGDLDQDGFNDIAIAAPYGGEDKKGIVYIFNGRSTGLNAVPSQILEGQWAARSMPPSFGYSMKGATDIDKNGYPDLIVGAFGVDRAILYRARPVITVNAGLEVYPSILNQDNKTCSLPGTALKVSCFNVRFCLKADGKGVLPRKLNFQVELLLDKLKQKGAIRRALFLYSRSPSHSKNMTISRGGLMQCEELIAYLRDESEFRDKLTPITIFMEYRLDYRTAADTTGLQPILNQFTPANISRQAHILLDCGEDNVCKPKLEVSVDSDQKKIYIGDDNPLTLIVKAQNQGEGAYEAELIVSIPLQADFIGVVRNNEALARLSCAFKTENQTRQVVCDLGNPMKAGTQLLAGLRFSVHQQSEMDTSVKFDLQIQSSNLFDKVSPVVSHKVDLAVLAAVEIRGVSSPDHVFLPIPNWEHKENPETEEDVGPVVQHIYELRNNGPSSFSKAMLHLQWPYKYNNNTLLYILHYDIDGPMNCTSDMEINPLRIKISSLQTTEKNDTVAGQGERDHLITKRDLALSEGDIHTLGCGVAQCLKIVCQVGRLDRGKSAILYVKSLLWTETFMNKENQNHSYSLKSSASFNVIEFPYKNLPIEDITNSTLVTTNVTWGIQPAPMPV
T2 sequence (P18084 24-719, chain 2 of 2): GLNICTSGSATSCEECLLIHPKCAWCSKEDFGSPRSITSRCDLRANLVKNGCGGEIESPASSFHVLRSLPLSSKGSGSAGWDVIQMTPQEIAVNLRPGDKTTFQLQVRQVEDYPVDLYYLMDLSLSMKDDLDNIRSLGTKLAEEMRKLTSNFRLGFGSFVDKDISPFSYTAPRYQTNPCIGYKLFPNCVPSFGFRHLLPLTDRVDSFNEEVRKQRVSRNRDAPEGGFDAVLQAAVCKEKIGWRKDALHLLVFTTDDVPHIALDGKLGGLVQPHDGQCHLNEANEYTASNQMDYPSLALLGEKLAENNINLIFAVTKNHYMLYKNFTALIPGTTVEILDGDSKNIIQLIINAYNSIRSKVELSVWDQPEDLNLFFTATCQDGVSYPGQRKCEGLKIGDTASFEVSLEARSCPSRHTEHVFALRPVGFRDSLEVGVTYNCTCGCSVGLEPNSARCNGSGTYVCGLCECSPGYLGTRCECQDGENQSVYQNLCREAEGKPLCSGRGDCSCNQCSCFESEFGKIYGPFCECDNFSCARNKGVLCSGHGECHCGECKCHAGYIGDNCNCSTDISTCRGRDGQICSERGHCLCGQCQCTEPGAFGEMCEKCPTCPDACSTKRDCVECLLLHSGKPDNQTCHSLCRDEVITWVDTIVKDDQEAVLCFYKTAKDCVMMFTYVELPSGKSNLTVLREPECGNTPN

Assay [3] has as its target T1, integrin αVβ3. This is another data set of the same source.
Assay [4] has as its target T2, integrin αVβ5. This is another data set of the same source.

Read-outs that look alike come from different tables or passages of the source.

T1 sequence (P06756 31-992, chain 1 of 2): as the sequence (P06756 31-992, chain 1 of 2) above
T1 sequence (P05106 27-718, chain 2 of 2): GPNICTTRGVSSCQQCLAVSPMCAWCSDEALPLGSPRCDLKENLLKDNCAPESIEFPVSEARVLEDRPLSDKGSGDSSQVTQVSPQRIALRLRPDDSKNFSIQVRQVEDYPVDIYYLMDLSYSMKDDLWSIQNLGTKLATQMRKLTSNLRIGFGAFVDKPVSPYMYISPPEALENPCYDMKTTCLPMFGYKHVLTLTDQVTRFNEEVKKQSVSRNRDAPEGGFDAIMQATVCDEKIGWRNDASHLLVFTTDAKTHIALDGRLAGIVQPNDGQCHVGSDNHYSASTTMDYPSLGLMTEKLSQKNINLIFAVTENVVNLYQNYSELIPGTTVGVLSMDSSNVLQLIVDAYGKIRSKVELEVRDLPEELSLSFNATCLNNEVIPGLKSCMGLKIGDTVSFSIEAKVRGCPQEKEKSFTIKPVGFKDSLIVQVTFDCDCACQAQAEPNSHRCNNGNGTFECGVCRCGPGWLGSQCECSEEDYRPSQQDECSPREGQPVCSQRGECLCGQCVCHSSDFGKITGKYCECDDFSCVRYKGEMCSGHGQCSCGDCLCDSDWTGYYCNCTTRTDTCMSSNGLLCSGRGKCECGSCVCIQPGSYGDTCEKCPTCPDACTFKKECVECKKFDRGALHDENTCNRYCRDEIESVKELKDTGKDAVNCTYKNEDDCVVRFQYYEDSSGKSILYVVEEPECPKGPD

B1: soluble MICA generated by pKK46 (extended loop 5.1sp in loop 1) (designed binder)
chain: HHHHHHEPHSLRYNLTVLSWDGSVQSGFLTEVHLDGQPFLRCDRQKCRAKPQGQWAEDVLGNKTWDRETRDLTGNGKDLRMTLAHIKDQKEGLHSLQEIRVCEIHEDNSTRSSQHFYYDGELFLSQNLETEEWTMPQSSRAQTLAMNVRNFLKEDAMKTKTHYHAMHADCLQELRRYLKSGVVLRRTVPPMVNVTSGGSGGGSVTRGDTFTQSSGGSGGGVTCRASGFYPWNITLSWRQDGVSLSHDTQQWGDVLPDGNGTYQTWVATRICQGEEQRFTCYMEHSGNHSTHPVPSGK
In the case of B1, the signal with integrin αVβ3 [1] turned out to be 0.384 OD; with integrin αVβ5 [2], 1.06 OD; in the assay with integrin αVβ3 [3], 0.467 OD; with integrin αVβ5 [4] it was 0.66 OD. Moreover, the signal/ng with integrin αVβ3 [1] is 9.2 signal/ng; with integrin αVβ5 [2], 25.5 signal/ng; in the assay with integrin αVβ3 [3], 9.42 signal/ng; with integrin αVβ5 [4] it was 13.3 signal/ng.
